# Measured values taken from publication PMC4207562, “Study of the Structure-Function-Stability Relationships in Yeast D-amino Acid Oxidase: Hydrophobization of Alpha-Helices” (Acta Naturae, 2014).
# Columns and labels:
# Conditions in all cases: 50 mM potassium phosphate pH 8.0, 30 °C, air-saturated
# [1] = substrate: N[C@H](Cc1c[nH]c2ccccc12)C(=O)O; test: peroxidase/ABTS coupled assay, A414; format: biochemical, Trigonopsis variabilis
# Excerpt: (§1) peroxidase/ABTS coupled assay, A414 on TvDAAO
# [2] = substrate: N[C@H](Cc1ccc(O)cc1)C(=O)O; test: peroxidase/ABTS coupled assay, A414; format: biochemical, Trigonopsis variabilis
# Excerpt: as §1
# [3] = substrate: NCCCC[C@@H](N)C(=O)O; test: peroxidase/ABTS coupled assay, A414; format: biochemical, Trigonopsis variabilis
# Excerpt: as §1
# [4] = substrate: NC(=O)C[C@@H](N)C(=O)O; test: peroxidase/ABTS coupled assay, A414; format: biochemical, Trigonopsis variabilis
# Excerpt: as §1
# [5] = substrate: CSCC[C@@H](N)C(=O)O; test: peroxidase/ABTS coupled assay, A414; format: biochemical, Trigonopsis variabilis
# Excerpt: as §1
# [6] = substrate: CC(C)C[C@@H](N)C(=O)O; test: purified protein
# [7] = substrate: N[C@H](CO)C(=O)O; test: purified protein
# [8] = substrate: N[C@H](Cc1ccccc1)C(=O)O; test: purified protein
# [9] = substrate: CC(C)[C@@H](N)C(=O)O; test: purified protein
# [10] = substrate: C[C@@H](N)C(=O)O; test: purified protein
# [11] = substrate: C[C@H](O)[C@@H](N)C(=O)O; test: purified protein
protein,measurement,setting,value
"TvDAAO (Trigonopsis variabilis) (protein, recombinant tvdaao gene in pET-33b(+) based plasmid, E. coli BL21(DE3) CodonPlus/pLysS; MonoQ purified; FAD homodimer; no tag stated) MAKIVVIGAGVAGLTTALQLLRKGHEVTIVSEFTPGDLSIGYTSPWAGANWLTFYDGGKLADYDAVSYPILRELARSSPEAGIRLISQRSHVLKRDLPKLEVAMSAICQRNPWFKNTVDSFEIIEDRSRIVHDDVAYLVEFRSVCIHTGVYLNWLMSQCLSLGATVVKRRVNHIKDANLLHSSGSRPDVIVNCSGLFARFLGGVEDKKMYPIRGQVVLVRNSLPFMASFSSTPEKENEDEALYIMTRFDGTSIIGGCFQPNNWSSEPDPSLTHRILSRALDRFPELTKDGPLDIVRECVGHRPGREGGPRVELEKIPGVGFVVHNYGAAGAGYQSSYGMADEAVSYVERALTRPNL",Km,[1],0.49 ± 0.04 mM
same,kcat,[1],42.4 ± 1.4 s⁻¹
same,kcat/Km,[1],86500 M⁻¹ s⁻¹
same,Km,[2],0.45 ± 0.06 mM
same,kcat,[2],22.5 ± 1.9 s⁻¹
same,kcat/Km,[2],50000 M⁻¹ s⁻¹
same,Km,[3],29.3 ± 3.4 mM
same,kcat,[3],3.54 ± 0.21 s⁻¹
same,kcat/Km,[3],120 M⁻¹ s⁻¹
same,Km,[4],22.6 ± 1.5 mM
same,kcat,[4],62.4 ± 2 s⁻¹
same,kcat/Km,[4],2800 M⁻¹ s⁻¹
same,Km,[5],0.46 ± 0.03 mM
same,kcat,[5],80.5 ± 0.8 s⁻¹
same,kcat/Km,[5],175000 M⁻¹ s⁻¹
same,Km,[6],0.78 ± 0.02 mM
same,kcat,[6],29.1 s⁻¹
same,kcat/Km,[6],37300 M⁻¹ s⁻¹
same,Km,[7],36.6 ± 3.3 mM
same,kcat,[7],20.5 s⁻¹
same,kcat/Km,[7],560 M⁻¹ s⁻¹
same,Km,[8],0.37 ± 0.04 mM
same,kcat,[8],27.2 s⁻¹
same,kcat/Km,[8],73900 M⁻¹ s⁻¹
same,Km,[9],14.4 ± 1.2 mM
same,kcat,[9],85.3 s⁻¹
same,kcat/Km,[9],5900 M⁻¹ s⁻¹
same,Km,[10],16.7 ± 0.7 mM
same,kcat,[10],109 s⁻¹
same,kcat/Km,[10],6500 M⁻¹ s⁻¹
same,Km,[11],11.1 ± 0.8 mM
same,kcat,[11],1.75 s⁻¹
same,kcat/Km,[11],160 M⁻¹ s⁻¹
"TvDAAO (Trigonopsis variabilis; S335A) (protein, recombinant tvdaao gene in pET-33b(+) based plasmid, E. coli BL21(DE3) CodonPlus/pLysS; MonoQ purified; FAD homodimer; no tag stated) MAKIVVIGAGVAGLTTALQLLRKGHEVTIVSEFTPGDLSIGYTSPWAGANWLTFYDGGKLADYDAVSYPILRELARSSPEAGIRLISQRSHVLKRDLPKLEVAMSAICQRNPWFKNTVDSFEIIEDRSRIVHDDVAYLVEFRSVCIHTGVYLNWLMSQCLSLGATVVKRRVNHIKDANLLHSSGSRPDVIVNCSGLFARFLGGVEDKKMYPIRGQVVLVRNSLPFMASFSSTPEKENEDEALYIMTRFDGTSIIGGCFQPNNWSSEPDPSLTHRILSRALDRFPELTKDGPLDIVRECVGHRPGREGGPRVELEKIPGVGFVVHNYGAAGAGYQASYGMADEAVSYVERALTRPNL",Km,[5],4.6 ± 0.2 mM
same,kcat,[5],45.9 ± 1.1 s⁻¹
same,kcat/Km,[5],9900 M⁻¹ s⁻¹
TvDAAO (Trigonopsis variabilis; S277A) (protein) MAKIVVIGAGVAGLTTALQLLRKGHEVTIVSEFTPGDLSIGYTSPWAGANWLTFYDGGKLADYDAVSYPILRELARSSPEAGIRLISQRSHVLKRDLPKLEVAMSAICQRNPWFKNTVDSFEIIEDRSRIVHDDVAYLVEFRSVCIHTGVYLNWLMSQCLSLGATVVKRRVNHIKDANLLHSSGSRPDVIVNCSGLFARFLGGVEDKKMYPIRGQVVLVRNSLPFMASFSSTPEKENEDEALYIMTRFDGTSIIGGCFQPNNWSSEPDPSLTHRILARALDRFPELTKDGPLDIVRECVGHRPGREGGPRVELEKIPGVGFVVHNYGAAGAGYQSSYGMADEAVSYVERALTRPNL,Km,[6],0.15 ± 0.02 mM
same,kcat,[6],12 s⁻¹
same,kcat/Km,[6],80000 M⁻¹ s⁻¹
TvDAAO (Trigonopsis variabilis; S105A) (protein) MAKIVVIGAGVAGLTTALQLLRKGHEVTIVSEFTPGDLSIGYTSPWAGANWLTFYDGGKLADYDAVSYPILRELARSSPEAGIRLISQRSHVLKRDLPKLEVAMAAICQRNPWFKNTVDSFEIIEDRSRIVHDDVAYLVEFRSVCIHTGVYLNWLMSQCLSLGATVVKRRVNHIKDANLLHSSGSRPDVIVNCSGLFARFLGGVEDKKMYPIRGQVVLVRNSLPFMASFSSTPEKENEDEALYIMTRFDGTSIIGGCFQPNNWSSEPDPSLTHRILSRALDRFPELTKDGPLDIVRECVGHRPGREGGPRVELEKIPGVGFVVHNYGAAGAGYQSSYGMADEAVSYVERALTRPNL,Km,[6],0.28 ± 0.02 mM
same,kcat,[6],30.4 s⁻¹
same,kcat/Km,[6],110000 M⁻¹ s⁻¹
same,Km,[8],0.26 ± 0.02 mM
same,kcat,[8],32.3 s⁻¹
same,kcat/Km,[8],124000 M⁻¹ s⁻¹
"TvDAAO (Trigonopsis variabilis; S77A) (protein, recombinant tvdaao gene in pET-33b(+) based plasmid, E. coli BL21(DE3) CodonPlus/pLysS; MonoQ purified; FAD homodimer; no tag stated) MAKIVVIGAGVAGLTTALQLLRKGHEVTIVSEFTPGDLSIGYTSPWAGANWLTFYDGGKLADYDAVSYPILRELARASPEAGIRLISQRSHVLKRDLPKLEVAMSAICQRNPWFKNTVDSFEIIEDRSRIVHDDVAYLVEFRSVCIHTGVYLNWLMSQCLSLGATVVKRRVNHIKDANLLHSSGSRPDVIVNCSGLFARFLGGVEDKKMYPIRGQVVLVRNSLPFMASFSSTPEKENEDEALYIMTRFDGTSIIGGCFQPNNWSSEPDPSLTHRILSRALDRFPELTKDGPLDIVRECVGHRPGREGGPRVELEKIPGVGFVVHNYGAAGAGYQSSYGMADEAVSYVERALTRPNL",Km,[2],6.5 ± 0.7 mM
same,kcat,[2],12.4 ± 0.8 s⁻¹
same,kcat/Km,[2],1900 M⁻¹ s⁻¹
same,Km,[4],4.7 ± 0.7 mM
same,kcat,[4],17.2 ± 1 s⁻¹
same,kcat/Km,[4],3700 M⁻¹ s⁻¹
TvDAAO (Trigonopsis variabilis; S336A) (protein) MAKIVVIGAGVAGLTTALQLLRKGHEVTIVSEFTPGDLSIGYTSPWAGANWLTFYDGGKLADYDAVSYPILRELARSSPEAGIRLISQRSHVLKRDLPKLEVAMSAICQRNPWFKNTVDSFEIIEDRSRIVHDDVAYLVEFRSVCIHTGVYLNWLMSQCLSLGATVVKRRVNHIKDANLLHSSGSRPDVIVNCSGLFARFLGGVEDKKMYPIRGQVVLVRNSLPFMASFSSTPEKENEDEALYIMTRFDGTSIIGGCFQPNNWSSEPDPSLTHRILSRALDRFPELTKDGPLDIVRECVGHRPGREGGPRVELEKIPGVGFVVHNYGAAGAGYQSAYGMADEAVSYVERALTRPNL,Km,[6],0.07 ± 0.01 mM
same,kcat,[6],5 s⁻¹
same,kcat/Km,[6],76400 M⁻¹ s⁻¹
"TvDAAO (Trigonopsis variabilis; S67A) (protein, recombinant tvdaao gene in pET-33b(+) based plasmid, E. coli BL21(DE3) CodonPlus/pLysS; MonoQ purified; FAD homodimer; no tag stated) MAKIVVIGAGVAGLTTALQLLRKGHEVTIVSEFTPGDLSIGYTSPWAGANWLTFYDGGKLADYDAVAYPILRELARSSPEAGIRLISQRSHVLKRDLPKLEVAMSAICQRNPWFKNTVDSFEIIEDRSRIVHDDVAYLVEFRSVCIHTGVYLNWLMSQCLSLGATVVKRRVNHIKDANLLHSSGSRPDVIVNCSGLFARFLGGVEDKKMYPIRGQVVLVRNSLPFMASFSSTPEKENEDEALYIMTRFDGTSIIGGCFQPNNWSSEPDPSLTHRILSRALDRFPELTKDGPLDIVRECVGHRPGREGGPRVELEKIPGVGFVVHNYGAAGAGYQSSYGMADEAVSYVERALTRPNL",Km,[5],1.35 ± 0.04 mM
same,kcat,[5],104 ± 3 s⁻¹
same,kcat/Km,[5],77400 M⁻¹ s⁻¹
same,Km,[6],0.34 ± 0.02 mM
same,kcat,[6],31.4 s⁻¹
same,kcat/Km,[6],93100 M⁻¹ s⁻¹
